Molecular target: AMPylated HEPN^Lpg (Legionella pneumophila Philadelphia 1) (UniProt Q5ZRG2)
Assay: crystal structure

AMPylated HEPN^Lpg (from UniProt Q5ZRG2 1-139) (natural protein)
stoichiometry N: 4

— article PMC11586414
